Data taken from the RNAGym collection of RNA variant scans (doi:10.7554/elife.80360).

B1: HDV Ribozyme (parent)
chain: GGCCGGCAUGGUCCCAGCCUCCUCGCUGGCGCCGGCUGGGCAACAUUCCGAGGGGACCGUCCCCUCGGUAAUGGCGAAUGGGACCCA

Variants of: B1
Assay: self-cleavage, relative activity (ratio to wild type); higher = more cleavage; co-transcriptional

| Variant | self-cleavage |
| --- | --- |
| GGCCGGCAUGGUCUCAGCCUCCUCGCUGGCGCCGGCUGGGCAACAUUCCGAGGGGACCGUCUCCUCGGUAAUGGCGAAUGGGACCCA [C14U C62U] | 0.923 |
| GGCCGCGAUGGUCCCAGCCUCCUCGCUGGCGCCGGCUGGGCAACAUUCCGAGGGGACCGUCCCCUCGGUAAUGGCGAAUGGGACCCA [G6C C7G] | 0.475 |
| GGCCGGCAUGGUCCCAGCCUCCUCGCUGGUGCCGGCUUGGCAACAUUCCGAGGGGACCGUCCCCUCGGUAAUGGCGAAUGGGACCCA [C30U G38U] | 0.262 |
| GGCCGGCAUGGUUCCAGCCUCCUCGCUGGCGCCGGCUGGGCAACAUUCCGAGGGGACCGUCCCCUCGGUAAUGGCGAAUGGGACCCA [C13U] | 0.683 |
| AGCCGGCAUGGUCCCAGCCUCCUCGCUGGCGUCGGCUGGGCAACAUUCCGAGGGGACCGUCCCCUCGGUAAUGGCGAAUGGGACCCA [G1A C32U] | 0.133 |
| GGCCGGCAUGGUCCCAGCCUCCUCGCUGGCGCCGGCUGGGCAACAUUCCGAGGGGACCGUCCCCUCGGUAAUGGCAAAUCGGACCCA [G76A G80C] | 0.0719 |
| GGCCGGCAUGGUCCCAGCCUCCUCGCUGGGGCCAGCUGGGCAACAUUCCGAGGGGACCGUCCCCUCGGUAAUGGCGAAUGGGACCCA [C30G G34A] | 0 |
| GGCCGGCAUGGUCCCAGCCUCCUCGCGGGCGCCGGCUGGGCGACAUUCCGAGGGGACCGUCCCCUCGGUAAUGGCGAAUGGGACCCA [U27G A42G] | 0.289 |
| GGCCGGCAUGGUCCCAGCCUCCUCGCUGGAGCCGGCUGGGCAACAUUCCGAGGGGACCGUCUCCUCGGUAAUGGCGAAUGGGACCCA [C30A C62U] | 0.423 |
| GGCCGGCAUGGUCCCGGCCUCCUCGCUGGCGCCGGCUGGGCAACAUUCCGAGGUGACCGUCCCCUCGGUAAUGGCGAAUGGGACCCA [A16G G54U] | 0.72 |
| GGCCGGCAUGGUUCCAGCCUCCUCGCUGGCGCCGGCUGGGCAACAUUCCGAGGGGACCGUCCCCUGGGUAAUGGCGAAUGGGACCCA [C13U C66G] | 0.589 |
| GGCCGGCAUGGUCCCAGCCUCCUCGCUGGCGCCGGCUGGGCAACAUUCCGAGGGGACCGUCCCCUCGGUAAUGGCGAGUGGGACGCA [A78G C85G] | 0.539 |
| GGCCAGCAUGGUCCCAGCCUCCUCGCUGGCGCCGGCUGGGCAACAUUCCGAGCGGACCGUCCCCUCGGUAAUGGCGAAUGGGACCCA [G5A G53C] | 0.302 |
| GGCCGGCAUGGUCCCAGCCUACUCGCUGGCGCCGGCUGGGCAACAUUCCGAGGGGACCGUCCCAUCGGUAAUGGCGAAUGGGACCCA [C21A C64A] | 0.0692 |
| GGCCGGCAUGGUCCCAGCCUCCUCGCUGGCGCCGGCUGGGCAACAUUCCGAGGGGACCGUCCCCUUGGUAAUGGCGAAUGGGACACA [C66U C85A] | 1 |
| GGCCGACAUGGUCCCAGCCUCCUCGCUGGCGCCGGCUGGGCAACAUUCCGAGGGGGCCGUCCCCUCGGUAAUGGCGAAUGGGACCCA [G6A A56G] | 0.848 |
| GGCCGGCAUGGUCCCAGCCUACUCGCUGGCGCCGGCUGGGCAACAUUCCGAGGGGACCGGCCCCUCGGUAAUGGCGAAUGGGACCCA [C21A U60G] | 0.138 |
| GGCCGGCAUGGUCCCAGCCUCCUCGCUGGCGCCGGCUGGGCAACAAUCCGAGGGGACCGUCCGCUCGGUAAUGGCGAAUGGGACCCA [U46A C63G] | 0.723 |
| GGCCGGCAUGGUCCCGGCCUCCUCGCUGGCGCCGGCUGGGCAACAUUCCGACGGGACCGUCCCCUCGGUAAUGGCGAAUGGGACCCA [A16G G52C] | 0.928 |
| GGCCGUCAUGGUCCCAGCCUCCUCGCUGGCGCCGGCUGGGCAACAUUCCGAGGGGACCUUCCCCUCGGUAAUGGCGAAUGGGACCCA [G6U G59U] | 0.69 |
| GGCCGGCAUGGUCCCAGCCACCUCGCUGGCUCCGGCUGGGCAACAUUCCGAGGGGACCGUCCCCUCGGUAAUGGCGAAUGGGACCCA [U20A G31U] | 0.0978 |
| GGCCGGCAUGGUCCCAGCCUCCUCGCUGGCGCCGGCUGGGCAACAUUCCGAGGGGACCGUCCCCUCGGUAGGGGCGAAUGGGACCCA [A71G U72G] | 0.516 |

| Variant | self-cleavage |
| --- | --- |
| GGCCGGCAUGGUCCCAGCCUCCUCGCUGGCGCCGGCUGGGCAACAUUCAGAGGGGACCGUCCCCUCGAUAAUGGCGAAUGGGACCCA [C49A G68A] | 0.742 |
| GGCCGGCAUGGUCCCAGCCUCCUCGCUGGUGCCGGCCGGGCAACAUUCCGAGGGGACCGUCCCCUCGGUAAUGGCGAAUGGGACCCA [C30U U37C] | 0.906 |
| GGCCGGCAUGGUCCCAGCAUCCUCGCUGGCGCCGGCUGGGCAACAUUCCGAGGGGACCGUCCCCUCGUUAAUGGCGAAUGGGACCCA [C19A G68U] | 0.178 |
| GGCCGGCAUGGUCCCAGCCUCCUCGCUGGCGCCGGCUGGGAAACAUUCCGAGGGGACCGUCCCCUCGGUUAUGGCGAAUGGGACCCA [C41A A70U] | 0.817 |
| GGGCGGCAUGGUCCUAGCCUCCUCGCUGGCGCCGGCUGGGCAACAUUCCGAGGGGACCGUCCCCUCGGUAAUGGCGAAUGGGACCCA [C3G C15U] | 0.532 |
| GGCCGGCAUGGUCCCAGCCUCCUCGCUGGCGCCGGCAGGGCAACAUUCCGAGGGGACCGUCCCUUCGGUAAUGGCGAAUGGGACCCA [U37A C64U] | 0.185 |
| GGCCGGCAUAGUCCCAGCCUCCUCGCUGGCGCCGGCUGGGCAACAUUCCGAGGGGACCGUCCCCUCGGUAAUGGCGAAUAGGACCCA [G10A G80A] | 0.11 |
| GGCCGGCAUGGUCCCAGCCUCCUCGCUGGCGCCGGCUGGGCAACAUUCCGAGGGGACCGUCCCCUAGGUAAUGGCGAAUGAGACCCA [C66A G81A] | 0.354 |
| GGCCGGCAUGGUCCCAGCCUCCUCGCUGGCGCCGGCUGGGCAACAUUCCGAGGGGACCGUCCGCUCAGUAAUGGCGAAUGGGACCCA [C63G G67A] | 0.372 |
| GGCCGGCAUGGUCCCAGCCUCCUCGCUGUCGCCGGCUGGGCAACAUUCCGAGGGGACCGUCCCCUCGGUAAAGGCGAAUGGGACCCA [G29U U72A] | 0.218 |
| GGCCGGCAUGGCCCCAGCCUCCUCGCUGGCGCCGGCUGGGCAACAUUCCGAGGGGACUGUCCCCUCGGUAAUGGCGAAUGGGACCCA [U12C C58U] | 0.222 |
| GGACGGCAUGGUCCCAGCCGCCUCGCUGGCGCCGGCUGGGCAACAUUCCGAGGGGACCGUCCCCUCGGUAAUGGCGAAUGGGACCCA [C3A U20G] | 0.0163 |
| GGCCGGCAUGGUCCCGGCCUCCUCGCUGGCGCCGGCUGGGCAACAUUCCGAGGGGACCGGCCCCUCGGUAAUGGCGAAUGGGACCCA [A16G U60G] | 0.554 |
| GGCCGGCAUGAUCCCAGCCUCCUCGCUGGCGCCGGCUGGGCAACAUUCCGAGGGGACCGUCCCCUCGGUACUGGCGAAUGGGACCCA [G11A A71C] | 0.295 |
| AGCCGGCAUGGUCCCAGCCUCCUCGCUGGCGCCGGCUGGGCAUCAUUCCGAGGGGACCGUCCCCUCGGUAAUGGCGAAUGGGACCCA [G1A A43U] | 0.0437 |
| GGCCGGCAUGGUCCCAGCCUCCUCGCUGGCGCCGGCUGGGCAACAUUCCGAGAGGACCGUCCCCUCGGUAAUGGCGAAUGGGCCCCA [G53A A83C] | 0.464 |
| GGCCGGCAUGGUCCCAGCCUCCUCGCUGGCGCCGGCUGGGCAACAUUCCGAGGGGACCGUCCCCUCGGUAAUGGCGCAUGGGACUCA [A77C C85U] | 0.192 |
| GGCCGGCAUGGGCCCAGUCUCCUCGCUGGCGCCGGCUGGGCAACAUUCCGAGGGGACCGUCCCCUCGGUAAUGGCGAAUGGGACCCA [U12G C18U] | 0.361 |
| GGCCGGCAUGGUCCCAGCCUACUUGCUGGCGCCGGCUGGGCAACAUUCCGAGGGGACCGUCCCCUCGGUAAUGGCGAAUGGGACCCA [C21A C24U] | 0.0739 |
| GGCCGGCAUGGUCCCAGCCUCCUCGCUGGCGCCGGCUGGGCAACAUUCCGAGGGGACCGUCCCCUCGGAAAGGGCGAAUGGGACCCA [U69A U72G] | 0.883 |
| GGCCGGCAUGGUCCCAGCCUCCUCGCUGGCGCCGGCUGGGCAACAUUCCGAGGGGACCGUCCCCUCGGUAAAUGCGAAUGGGACCCA [U72A G73U] | 0.612 |
| GGCCGGCAUAGUCCCAGCCUCCUCGCUGGCGCCGGCUGGGCAACAUUCCGAGGGGACCGUCCCCUCGUUAAUGGCGAAUGGGACCCA [G10A G68U] | 0.562 |

| Variant | self-cleavage |
| --- | --- |
| GGCCGGCAUGGUCCCAGCCUCCUCGCUGGCGCCGGCUGGGCAACAUUCCGAGGGGACCGUCCCCUCAGUAAUGGCGAAUGGGACCAA [G67A C86A] | 0.985 |
| GGCCGGCAUGGUCCCAGCCUCCUCGCUGGCGCCGGCUGGGCAACAUUCCGAGGGGACCGUCCCCCCGGUAAUGGCGGAUGGGACCCA [U65C A77G] | 0.831 |
| GGCCGGCAUGGUCCCUGCCUCCUCGCUGGCGCCGGCUGGGCAACAUUCCGAGGGGACCGUCCCCUCGGUAGUGGCGAAUGGGACCCA [A16U A71G] | 0.782 |
| GGCCGGCAUGGUCCCAGCCUCCUCGCUGGCGCCGACUGGGCAACAUUCCGAGGGGACCGUCCCCUCGGUAAUGGCGAAUGGGAACCA [G35A C84A] | 0.62 |
| GGGCGGCAUGGUCCCAGACUCCUCGCUGGCGCCGGCUGGGCAACAUUCCGAGGGGACCGUCCCCUCGGUAAUGGCGAAUGGGACCCA [C3G C18A] | 0.0542 |
| GGCCGGCAUGGUCCAAGCCUCCUCGCUGGCGCCGGCUGGGCAACAUUCCGAGGGGACCGUCCCCUCGGUUAUGGCGAAUGGGACCCA [C15A A70U] | 0.723 |
| GGCCGGCAUGGUCCCAGCCUCCUCGCUGGGGCCGGCUGGGCAACAUUCCGAGGGGACCGUCCCGUCGGUAAUGGCGAAUGGGACCCA [C30G C64G] | 0.0396 |
| GGCGGGCAUGGUCACAGCCUCCUCGCUGGCGCCGGCUGGGCAACAUUCCGAGGGGACCGUCCCCUCGGUAAUGGCGAAUGGGACCCA [C4G C14A] | 0.0852 |
| GGCCGGCAAGGUCCCAGCCUCCUCGCUGGCGCCGGCUGGGCAACAUUCCGAGGGGACCGUCCCCUCGGUAAUGGCGAAUGGGUCCCA [U9A A83U] | 0.643 |
| GGCCGGCAUGGUCCCAGCCUCCUCGCUGGCGCCAGCUGGGCAACAUUCCGAGGGGACCGUCCCCUCGAUAAUGGCGAAUGGGACCCA [G34A G68A] | 0.144 |
| GGCCGGCAUGGUACCAGCCUCCUCGCUCGCGCCGGCUGGGCAACAUUCCGAGGGGACCGUCCCCUCGGUAAUGGCGAAUGGGACCCA [C13A G28C] | 0.111 |
| GGCCGGCAUGGUCCCAGCCUCCUCGCUGGCGCCGGCUGGGCAACAUUCCGAGGGGACCGUCCCCUCGCUAAUGGCGAAUGGGACCGA [G68C C86G] | 1.07 |
| GGCCGGCAUGGUCCCAGCCUCCUCGCUGGCGCCGGUUGGGCAACAUUCCGAGGGGACCGUCGCCUCGGUAAUGGCGAAUGGGACCCA [C36U C62G] | 0.222 |
| GGCCGGCAUGGUCCCAGCCUCCUCGCUGGCGCCGGCUAGGCAACCUUCCGAGGGGACCGUCCCCUCGGUAAUGGCGAAUGGGACCCA [G38A A45C] | 0.0804 |
| GGCCGGCAUGGUCCCAGCCUCCUCGCUGGCGCCGGCUGGGCAACGUUCCGAGGGGACCGUCCCCUCGGUAAUGGCAAAUGGGACCCA [A45G G76A] | 0.959 |
| GGCAGGCAUGGUCCCAGCCUCCUCGCUGGCGCCGGCUGGGCAACAUUCCGAGGGGACCGUCCCCUCGGUAAUGGCGCAUGGGACCCA [C4A A77C] | 0.0462 |
| GGCCGGCAUGGUCCCAGCCUCCUCGCUUGCGCCGGCCGGGCAACAUUCCGAGGGGACCGUCCCCUCGGUAAUGGCGAAUGGGACCCA [G28U U37C] | 0.141 |
| GGCCGUCAUGGUCCCAGCCUCCUCGCUGGCGCCGGCUGGGCAACAUUCCGAGGGGACCGUCCCCUCGGUAAUGGCGAAUGGGCCCCA [G6U A83C] | 0.0852 |
| GGCCGGCAUGGUCCCAGCCUCCUCGCUGGCGCCGGCUGGGCAACAUGCCGAGGGGACCGUCCCCUCGGUAAUGGCGAAUCGGACCCA [U47G G80C] | 0.192 |
| GGCCGGGAUGGUCCCAGCCUCCUCGCUGGCGCCGGCUGGGCAACAUUCCGAGGGGACCGGCCCCUCGGUAAUGGCGAAUGGGACCCA [C7G U60G] | 0.256 |
